Experimental findings from US10253078 (ZEALAND PHARMA A S, dated 2019) are described below.

Read-outs that look alike come from different tables or passages of the source. Starred links: 1 amine or outer side, 2 acyl side, 3 side chain; linkers in the order of their positions; H or OH if unused. Non-standard residues stand in square brackets, D forms with d. Groups on a side chain read outwards from the residue. *: point of attachment. C20 diacid = O=C(O)CCCCCCCCCCCCCCCCCCC(=O)*; γGlu = O=C(O)[C@H](CCC(=O)[*:2])N[*:1]; Aib = CC(C)(N)C(=O)O

Common to all, as to test: cell-based or functional assay
The target of experiment [1] is human GLP-1 receptor (human) (UniProt P43220).
For experiment [2], the target named is T1, human GIP receptor (human, UniProt P48546 22-466).
T1 sequence (looked up): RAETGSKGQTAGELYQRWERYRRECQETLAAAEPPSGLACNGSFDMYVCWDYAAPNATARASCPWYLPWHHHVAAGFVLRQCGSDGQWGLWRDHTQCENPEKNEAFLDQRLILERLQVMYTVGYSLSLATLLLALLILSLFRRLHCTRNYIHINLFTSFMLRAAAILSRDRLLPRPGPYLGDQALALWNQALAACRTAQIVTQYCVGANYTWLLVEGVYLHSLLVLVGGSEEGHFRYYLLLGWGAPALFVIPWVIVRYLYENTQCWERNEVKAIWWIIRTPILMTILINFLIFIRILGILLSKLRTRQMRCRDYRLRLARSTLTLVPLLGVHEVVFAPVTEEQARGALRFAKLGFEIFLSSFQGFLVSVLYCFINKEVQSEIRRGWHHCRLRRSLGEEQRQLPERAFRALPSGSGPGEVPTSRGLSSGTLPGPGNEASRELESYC

The next experiment addresses human GLP-1 receptor (human, UniProt P43220 24-463).
The target in experiment [3] is T1, human GIP receptor. This is another data set of the same source.
The target of experiment [4] is T1, human GIP receptor. The source holds these as a separate data set.

Sequence of Exendin-4 (P26349 48-86 limits assumed): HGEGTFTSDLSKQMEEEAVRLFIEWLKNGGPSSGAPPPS
Sequence of human GLP-1 receptor (human) (P43220 24-463): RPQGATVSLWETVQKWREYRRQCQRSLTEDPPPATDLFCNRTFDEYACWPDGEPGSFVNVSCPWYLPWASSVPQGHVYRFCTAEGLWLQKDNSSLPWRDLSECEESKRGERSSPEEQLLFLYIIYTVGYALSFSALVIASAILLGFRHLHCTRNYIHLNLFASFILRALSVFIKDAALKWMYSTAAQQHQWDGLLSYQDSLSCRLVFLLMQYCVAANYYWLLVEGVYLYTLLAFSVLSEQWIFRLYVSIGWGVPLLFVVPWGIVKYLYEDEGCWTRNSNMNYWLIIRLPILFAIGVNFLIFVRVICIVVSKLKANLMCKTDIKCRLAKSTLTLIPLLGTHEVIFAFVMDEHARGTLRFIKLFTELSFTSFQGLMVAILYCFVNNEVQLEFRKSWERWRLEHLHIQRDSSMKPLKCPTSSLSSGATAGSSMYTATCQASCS

As to “Exendin-4 (from UniProt P26349 48-86) (peptide)”, the EC50 hGLP1 R (cAMP, HEK293 cells expressing the GLP-1R) in experiment [1] was determined as 0.004 nM.
For “human GIP (from UniProt P09681 52-93) (ligand)”, the EC50, hGIP-R level of cAMP (HEK293 cells expressing human GIP R) in the experiment with human GIP receptor [2] came to 0.003 nM. The molecule also returned an EC50 hGLP1 R (cAMP, HEK293 cells expressing the GLP-1R) with human GLP-1 receptor of more than 100 nM.
Turning to H-Y[Aib]EGTFISDYSIELDKK([Peg3-Peg3-γGlu-C20 diacid])AAQDFVNWLLAGPSSGAPPPS-NH2 [Compound 15], the “EC50, hGIP-R level of cAMP (HEK293 cells expressing human GIP R)” value (“EC50, hGIP-R level of cAMP” below) in the experiment with human GIP receptor [3] was 0.012 nM. Further, the “EC50 hGIP R (cAMP, HEK293 cells expressing the GIP R)” value (shortened to “EC50 hGIP R”) with human GIP receptor [4] turned out to be 0.024 nM. Also, the “EC50 hGLP1 R (cAMP, HEK293 cells expressing the GLP-1R)” value (shortened to “EC50 hGLP1 R”) with human GLP-1 receptor is more than 100 nM.
As for H-Y[Aib]EGTFISDYSIELDKK([Peg3-Peg3-γGlu-C20 diacid])AQRAFIEWLLAQGPSSGAPPPS-NH2 [Compound 18], the “EC50, hGIP-R level of cAMP” value in the experiment with human GIP receptor [3] was 0.006 nM. In the experiment with human GIP receptor [4], the “EC50 hGIP R” value was found to be 0.007 nM. For the same molecule, in the experiment with human GLP-1 receptor, the “EC50 hGLP1 R” value is more than 3 nM.
The matching figures for H-Y[Aib]EGTFISDYSIELDKK([Peg3-Peg3-γGlu-C20 diacid])HQQDFVNYLLAQGPSSGAPPPS-NH2 [Compound 8]: 0.009 nM, 0.019 nM and more than 10 nM.
The matching figures for H-Y[Aib]EGTFISDYSIELDKIAAQDFVNWLLAGPSSGAPPPSK([Peg3-Peg3-γGlu-C20 diacid])-NH2 [Compound 16]: 0.016 nM, 0.012 nM and more than 10 nM.
The matching figures for H-Y[Aib]EGTFISDYSIELEKIAQRAFVEWLLAQGPSSGAPPPSK([Peg3-Peg3-γGlu-C20 diacid])-NH2 [Compound 13]: 0.014 nM, 0.008 nM and more than 10 nM.
Consider H-Y[Aib]EGTFISDYSIELEKK([Peg3-Peg3-γGlu-C20 diacid])AQRAFVEWLLAQGPSSGAPPPS-NH2 [Compound 12], for which the “EC50, hGIP-R level of cAMP” value with human GIP receptor [3] came out at 0.009 nM. Besides, in the experiment with human GIP receptor [4], the “EC50 hGIP R” value came to 0.009 nM. Moreover, the “EC50 hGLP1 R” value with human GLP-1 receptor was more than 3 nM.
Turning to H-Y[Aib]EGTFISDYSIELEKIAQRAFVEWLLAQK([Peg3-Peg3-γGlu-C20 diacid])-NH2 [Compound 14], the “EC50, hGIP-R level of cAMP” value with human GIP receptor [3] came to 0.024 nM. Moreover, in the experiment with human GIP receptor [4], the “EC50 hGIP R” value stood at 0.014 nM. Moreover, in the experiment with human GLP-1 receptor, the “EC50 hGLP1 R” value was more than 10 nM.
The matching figures for H-Y[Aib]EGTFISDYSIELDKK([Peg3-Peg3-γGlu-C20 diacid])AQRAFVEWLLAQGPSSGAPPPS-NH2 [Compound 17]: 0.007 nM, 0.016 nM and more than 3 nM.
